Experimental data from IntAct's records for PubMed 19412162.

Target: fbx31_human FBXO31 (UniProt Q5XUX0)
Chain of UniProt Q5XUX0 (Q5XUX0 whole entry): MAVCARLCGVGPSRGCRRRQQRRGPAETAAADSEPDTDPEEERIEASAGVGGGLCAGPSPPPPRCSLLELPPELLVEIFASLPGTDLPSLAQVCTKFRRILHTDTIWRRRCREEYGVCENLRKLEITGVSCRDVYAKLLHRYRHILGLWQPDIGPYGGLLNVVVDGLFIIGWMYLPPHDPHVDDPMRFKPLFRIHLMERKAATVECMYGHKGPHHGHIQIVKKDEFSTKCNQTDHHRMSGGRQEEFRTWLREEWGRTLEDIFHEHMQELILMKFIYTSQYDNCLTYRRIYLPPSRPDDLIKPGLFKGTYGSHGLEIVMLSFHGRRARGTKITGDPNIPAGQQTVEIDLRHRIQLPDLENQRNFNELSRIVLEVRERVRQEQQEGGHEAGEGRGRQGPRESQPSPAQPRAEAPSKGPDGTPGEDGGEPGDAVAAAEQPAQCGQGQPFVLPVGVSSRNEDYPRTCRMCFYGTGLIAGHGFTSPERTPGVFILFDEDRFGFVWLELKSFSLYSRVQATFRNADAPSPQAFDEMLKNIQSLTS

Q: “Serine-protein kinase ATM (Homo sapiens), Q13315 D2870A;N2875K” was tested. Which “effect of a mutation on the interaction” value did it give?
A: Its value is “disrupting interaction”.
